# Measured values from the supplement of paper PMC12042874.
# ± gives the uncertainty stated by the source.
# Assay: amyloid nucleation score (Sup35N fusion, yeast selection) (log enrichment); library NNK3; higher = more nucleation; inactive = no reads after selection
# In short: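 Growth for 7 days at 30°C on medium lacking adenine and uracil followed a 24-hour induction with 100 μM copper sulfate of psi-negative yeast expressing peptides of 20 random codons fused to Sup35N. Input and output plasmid inserts were sequenced with Illumina, and sequences with under 100 input reads were excluded. Nucleation score is the DiMSum log enrichment of output over input reads, centred on the mode score of non-aggregating sequences.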
row,Substance,amyloid nucleation score
1,VVKNTW,inactive
2,FVYDMHKHQIALRQVSSCEG,inactive
3,LQANAI,inactive
4,PMHLTKVHVVRNFVTQSTRG,inactive
5,RLFYTRIDSTCIWLVLYAEK,inactive
6,ENWDSILCKWRGAGMRGSAW,inactive
7,TYIRGQRCDIQMETWMTLCS,inactive
8,RNLRVIGVTRDHGNF,inactive
9,SDLFVSVFM,inactive
10,EFTFWWCCDRYSRAELTCRR,inactive
11,GLRGVDWVDREQLPGTVQGH,-0.589 ± 1.9
12,VFTYCYVFHQVVSLRQARLR,inactive
13,RCKSGLNSMGRRFRYRIQQP,0.809 ± 0.18
14,DFSSCCDHPFIVI,0.346 ± 0.75
15,LVTGNVYVF,inactive
16,PNHEFYRARFRLCNAICTTV,inactive
17,SASGGFVLFLWLVCEGTFAG,0.069 ± 0.38
18,IFWVSRSDA,inactive
19,QILFTQILLNSGEEGLSFVS,0.479 ± 0.18
20,YFILLGSAGRCAPMM,0.71 ± 0.23
21,FVCRNLTFPMGHQSIMSMWD,-0.117 ± 0.75
22,LVLDINTFTDIGSRKRWSHG,inactive
23,SKRFAIAEQVCNSF,inactive

row,Substance,amyloid nucleation score
1,DNEEKLIGRSL,inactive
2,CEIVFQYVFNFFSPTTSVVC,1.54 ± 0.089
3,VYRQVLRET,inactive
4,SFSKNVVDL,inactive
5,SNPHDDSHDVILVFLVLGRC,inactive
6,WFAGGHGKESIINWHYCQYM,inactive
7,TLFFSNDRVRFGRSTSRCHM,inactive
8,NDHLSCVRMVLHSMGCHKWS,-0.181 ± 0.88
9,SMIKPAIFGYNVMLVPYINC,inactive
10,YVYRSRFKQDLRGFLFNFTY,inactive
11,NYDIILMLGWSVTFKLKVRF,-0.36 ± 1.1
12,HELDSTTLCVFKPFPFHANL,inactive
13,NRALNW,inactive
14,FCARYLFCLISGDYS,inactive
15,TVVMIFLISYNFF,1.7 ± 0.1
16,SMYDKGMGYTCVKSSVNLFV,inactive
17,RVIYG,inactive
18,GDMVCFVLMKALV,inactive
19,NNGSP,inactive
20,DCYMDLSRQFRNRCGLASFY,inactive
21,CWRCFSAD,0.041 ± 0.6
22,SYLFYMHSSVLGSLMGQRDH,inactive
23,CYNDRFFIVSIYRDQ,1.07 ± 0.1

row,Substance,amyloid nucleation score
1,DLRLFFRRRGISQLDC,0.356 ± 0.26
2,VNSLATRNFIGTLCVVSHKR,inactive
3,KVVIF,inactive
4,FDKTCGSSRNLSRAWDNLTF,inactive
5,TKASKMTKQIF,inactive
6,IGEPCLWNSV,inactive
7,FFWKILALPSE,inactive
8,ILFRGPKLCKNGHVL,inactive
9,ITCCM,inactive
10,SSLRLRDMSASENNRGSMPV,inactive
11,VSTSPNIDSLRCFCIHVKRR,inactive
12,SVFSFCLNYSYNCIDRCKFN,inactive
13,ERSFAYDYDCSVCFTHAFAT,inactive
14,PINWECWDQELEGLHDMQAI,inactive
15,ASRIDNIDWGGRKKLRNVEG,inactive
16,ANLSRSSTLLSGVWSEV,inactive
17,KDIFYVAGDR,inactive
18,RREYVVGNSFFYNY,1.19 ± 0.093
19,KFTMTPWDPLCLCVRSDIDL,inactive
20,QTSIPGFDTTTLRVPLAFFG,inactive
21,YPCLSIGFSCSVLRMNVYLW,0.368 ± 0.21
22,THLRLIYITD,inactive
23,KGAFEMRG,-0.277 ± 1.1

row,Substance,amyloid nucleation score
1,SSSSIVLDGLTFWLINTVTT,0.598 ± 0.21
2,NVDVTELCTAVTYNDLHGFR,inactive
3,YYVYSRGALLYHYILQMARL,inactive
4,SHLDGYICYCPLLKRWIDYR,-0.035 ± 0.59
5,VENRYVIINSRVMGD,inactive
6,MVFSAICITHFTKI,inactive
7,FHILIFVKTP,inactive
8,YFNLSEYGLCCYRGFRVYKS,1.23 ± 0.18
9,KSLKTRYSPSVYFDFYLHYG,1.07 ± 0.15
10,LLTGFLSKVSGQS,inactive
11,EFSKHFPCWHRNSVAYYEIR,inactive
12,VITGLIMMLNCIGFVFRGLA,inactive
13,GYLFGVRVGCVYELAFDGCR,inactive
14,IYMRRESGVLGEQ,inactive
15,MIFSRAISDGSFLTVFV,-0.32 ± 0.8
16,LGSFNDVWIVCADWFAFLKV,inactive
17,VVDYNKDQDGAMTASRGDRK,-0.726 ± 1.5
18,AKWMAFSSSSFRSCFFSFKQ,-0.804 ± 1.8
19,GQDRYLLAAYK,inactive
20,GVMDDSDIL,-0.492 ± 0.84
21,YRNCLLRDMSWVVDFIDIKT,inactive
22,GDYDTMAEVKPFLDEKC,inactive
23,MCMSVCFSK,inactive

row,Substance,amyloid nucleation score
1,TMRVVFRHKTVNRIEVKVYF,-0.234 ± 0.69
2,VMHNVM,inactive
3,SVVSCMWMWHLVRYKH,-0.509 ± 1.8
4,IYLLYNPCFRMRYLFCMLRG,inactive
5,TQCEVYCIYGVTHGLE,inactive
6,WGFVIIYELKNLMCVMRPPS,inactive
7,SDQFLIMEDSCSTPGRRSFK,0.408 ± 0.29
8,WCGVFWLVVMAY,inactive
9,QFESSSFRYVAVCSVCAFSI,1.73 ± 0.099
10,HVILICLSFYTKFICPIPEV,inactive
11,LLFTCQSDKDYVRFFVQFNW,inactive
12,GYPVWYVDLFSAKVRMQ,inactive
13,CRYNVIYWGIDSCYHMWSWR,inactive
14,SMSNQSSTFDSLLFRQWLVV,inactive
15,CPYLLNVIMWAIFRSANFVA,inactive
16,AYSSHFTCRPYGFNLWSLGS,inactive
17,LHFGDMLLVCNTFFELRVLH,1.73 ± 0.08
18,NGNNLIRVFVWYYDNS,2.99 ± 0.08
19,SPPKAAKCICAISSWSLWWT,inactive
20,IGCEQDADNYNRSWWIWMKF,inactive
21,TYTYCTLNSLTDSRSETILV,inactive
22,REGLRYLMVRSIIFSHIFCN,inactive
23,VMCVGYGTSRYSWVAFGLDK,inactive

row,Substance,amyloid nucleation score
1,FRVTMMSACRLDSIGLDCSC,1.25 ± 0.086
2,IPQNNLSDWLKCQMILVKEY,inactive
3,ETTYGFDKIYGVEYVCGLCR,inactive
4,ESAYFLAYLQVLLWRVMGEL,inactive
5,SGVSWTRPIWYLNWFTQSLW,inactive
6,FRAWYDTAMSQSLFLCRKGA,inactive
7,IGVDVTYSKGLSGTIDKSLG,inactive
8,AQRVMD,inactive
9,FNAPVNVLFR,-0.176 ± 0.6
10,SYSADLKLMIWSCLNLVVFQ,inactive
11,SGVYLNVIWNCDIGDING,1.49 ± 0.12
12,VICIKEEEG,inactive
13,ELRSHKLMMGRQYLHRLCSV,inactive
14,TPQPLIIAQIVASPSEKKLL,inactive
15,CFVKGFTIETFWLKVVGIRG,inactive
16,NINVRTELVQRKGNILP,0.213 ± 0.17
17,SWSFDWFQSIVVGYLTCALA,inactive
18,LIVSIYMCGCRKRITFLRVS,inactive
19,QHALCSTAIRILLSV,inactive
20,VDFLCNPWVERINGYVWEVV,inactive
21,TLSGLVWWCVVFAMAT,inactive
22,DKFMWVGNSCVHSD,inactive
23,DNPTYRYTICGMTLEHPKEE,inactive

row,Substance,amyloid nucleation score
1,IYAVSCVCVGIYGTIRLTSG,0.017 ± 0.23
2,LSDMNVNKRMCCMVRDSNMR,inactive
3,LVYLQDLQLSSMLDFHSCM,inactive
4,LWAIMFRYSDIAKLTGWRVV,-0.069 ± 0.82
5,SSAGYVVYIVMSRS,2.65 ± 0.065
6,VLKESMLGISLLMGTLRW,0.2 ± 0.56
7,PNQYWQ,inactive
8,FLMSHVII,inactive
9,MTWGSNFSDNGYKLEIMCYQ,inactive
10,MPPLNNCLDPYFLVCCNMVY,inactive
11,TRSNRRHVRVT,inactive
12,DSYDLYIVD,inactive
13,DYDYTRFPVITV,inactive
14,MMLFNSMWDIFCLMDGLH,inactive
15,SCVLTFGFLILLRVPSYSRI,inactive
16,WIMWTLAIKIIMCW,inactive
17,SVMYVQNFPYLLSYWRSFIG,inactive
18,DNDQNGVREVERGVLTLSSV,inactive
19,VGTDDVIICILSVKFPLIRP,inactive
20,RCTHYMNRQMVLHVCMYVSY,inactive
21,QWEVR,inactive
